Test: soluble on expression in E. coli; label from the status in PepcDB or PDB records

Soluble on expression in E. coli, not soluble:
MGSDKIHHHHHHMAPRTKTRERIVQASLELFNQQGERCITTNHIAAHMEISPGNLYYHFANKQVIIAELFTQYETLVGSFLTLRTDRLPTIEDKRDYFLAMIDAMWRYRFLHQDLEHLLTSDAELARRYRRFSYRCLMQAMNIYRGFIKAGILQMDESQIEWTSLNTWIVLTSWVRFLCTNRENNAELNESAIRRGVYQVLMLESVFVAPQAREAFDALCETFHSSLPEALA
DLVIIVDDERRIVDVNAAATALFDGDQNTLLGRSLPQASPTLAETVPGPGERTQTETALERDGSVRYYDVRVIPLYRAYGVVSGHLISLRD
MEVDEDIELQKHQEQQSRKLQRFSEDNTGLMRNWNNPSSRIIRVSRASGGKDRHSKVLTSKGLRDRRIRLSVATAIQFYDLQDRLGFDQPSKAVEWLINAASDSITDLPLLNTNFDHLDQNQNQTKSACSSGTSESSLLSLSRTEIRGKARERARERTAKDRDKDLQNAHSSFTQLLTGGFDQQPSNRNWTGGSDCFNPVQLQIPNSSSQEPMNHPFSFVPDYNFGISSSSSAINGGYSSRGTLQSNSQSLFLNNNNNITQRSSISSSSSSSSPMDSQSISFFMATPPPLDHHNHQLPETFDGRLYLYYGEGNRSSDDKAKERR
MNTDELEHRRFDDLFSLVADPGFLLVAWDLVRGNKGASAAGVDGSTASSIALWVGVEKFLDMLRSQIKDRSFQPMPVRERMIPKAGGKLRRLGIATITDRVVQASLKLARFGEAAPGKRTGRKTGTAPRADFTPAIGCAFRYSPVLEHHHHHH
MGSDKIHHHHHHMEKIAVAENLRAYYFIKSGDKTTSIRAVDNVSLHFFENEVYGIAGESGCGKSTLLKVLFGEIKPPLKLVDGEVVFKLDGEEYRINSMSLDQLKKIRWKYVSYVPQGSMSVLNPVRKIRRIFLDVIEEHTSMSREEAFSRIESYFEALGLPVRVLDSYPHQLSGGMRQRVTIALATVLNPKVIFADEPTTALDVVVQRGVIQLLKKIHKEQKNTLVIVTHDMGVHAHLATRIGVMYAGRLIEEAETHEIFKNPLHPYTRFLINSLPRFGDRSRKEGTPGSPPSLANLPSGCPFHPRCPIADQICMEMEPDLIEVARNHKVACWKVGVER
MAHHHHHHMHACVAAIAMGEVGVYDDQRSSGQEISLAAAAAAGVQYARSSRTAFSCTSKSARQGGGGAVPIENLLPPLIEQPEKSLRAARGDTGAAITEDERAAIAMETWEHYMATAREATSAEGASMMPSATAAATMMSSASCANAAHSCTSAVAAEAPLVPIRSFPDALCALIERCTATPLVCLTLSDQQCQTTAVRDLLRALLTIMQRIEDSAVAAIDCEIALASHSSSSGHHTPVAATAALDLQAVRLAAVKGISRVLTTYLDGADGSAQPPTKASETFTAGLGHLDILSVFEDVVHQWAHVLTVLERGKELIGASAGVGKGSDVKAEDDLSGVPESPQGHRSGKDGTGAAAQLHWVLRIAYQIIAAEQREASRGSAEAAPRVRLLPPLLVPVALRTLSLITTVIPLVCRPASYVQLCVDVLWGASLLTPSESSRQLMYGSMGVAGLAGASNGSCEGEADVSRGAEASPPAMDLFLALLHQFNEGHSAAHRELRDDLVCLFAFLLRCDIQYVENKLVAQSCRAEWSPTNVFGVNSAVSPPPRLRSKLTPRRSISTSPLWRRSTLWRRCCSRQRAGPNSQRRCTRPQPQPQRRFSPPTSIEANLLR
TNHHQRALSYLQYGLDQGEGFIVITGPIGTGKTTIARNLLANIADENIVAAQLVTTKLTPNELLDLVAAEFKITVTGNSKADVLQSIEKFLINLNKQGKRALLLVDEAQNLPVETVEELRMLSNFQLDNKPLIQSFLLGQEELKAIISAPDMEQFRQRIIASAHLKP
MGSDKIHHHHHHVLQLESIGVMDNYNKDLTPDQASAFLEVVDASLRIKKKAQLFSWLQGHFQFLLPHEVLLCGFAVGVGRNFSLETFSSTRYVTDAQVAIAMHERTGVVMKAIQAWRQTSQPVLIDPYLKDGNFGRFTVPKIDQVNLQESELRNIAAYGLSSADGSISSFFSFSRISGELNASHAYMLELLVPYLHSVLMRVSDGVFNFGDAMGEGVNAGIITPREKEILQWVHTGKSNWEIATILEISPLTVKNHMQNILRKLDVQNRSHAAAKAYRLGLIRH
MEGQQVILHLPLSQKGPFWTWEPSAPRTLLQVLQDPALKDLVLTCPTLPWHSLILRPQYEIQAIMHMRRTIVKIPSTLEVDVEDVTASSRHVHFIKPLLLSEVLAWEGPFPLSMEILEVPEGRPIFLSPWVGSLQKGQRLCVYGLASPPWRVLASSKGRKVPRHFLVSGGYQGKLRRRPREFPTAYDLLGAFQPGRPLRVVATKDCEGEREENPEFTSLAVGDRLEVLGPGQAHGAQGSDVDVLVCQRLSDQAGEDEEEECKEEAETQSGSCCPSTSLAVSWRRLEHHHHHH
MGSDKIHHHHHHAQQQELPVPKPHQLKWHEAEMGAVFHYDLHVFDGIRYGQGNNRINPIEDYNIFNPTELNTDQWVQAAKAAGCKFAVLTATHETGFGLWQSDVNPYCLKAVKWRDGKGDIVRDFVNSCRKYGLQPGIYIGIRWNSLLGIHNFKAEGEGAFARNRQAWYKRLCEKMVTELCTRYGDLYMIWFDGGADDPRADGPDVEPIVNKYQPNCLFYHNIDRADFRWGGSETGTVEYPCWSTFPVPCSHHKRIESSIDQLELLKHGDKNGRYWVPAMADTPLRGANGRHEWFWEPDDENNIYPLNTLMDKYEKSVGRNATLILGLTPDPTGLIPAGDAQRLKEMGDEINRRFSSPIARISGQKKSLTLKLGKEQSVNYCIIQENIKNGERIRQYQIEAKVNGKWQTVCKGESVGHKRIEKFEPVEATALRLTVSESIALPDIINFSAYSVK
FNFGASYKNFSFSAQFGASWGTYALVQTDLRQEKYDDLEYKNVSAMWKDMYVYEDVLDAGGNVVAPMNRSAKYPNLRYSAINGQASTFWKVSAASVRLRNLTVAYSLPKEWTNRIGISSCRLNLTAQNLLNFYNPYPDGVWSTWGGTYGRYPNLRKVTLGVNVSF
MAHHHHHHMKSLENNEMHNLCPIHYYFNGRDYNSDTIINNVNIKYFNMDNCLGNANLHMDYLNPVLNHPTKIEHGKIKILILDAPTNDLLPLYIKEMKNYNVTDLVRTCERTYNDGEIQDAGINVHELIFPDGDAPTEDIVSNWLNIVNNVIKNNCAVAVHCVAGLGRAPVLASIVLIEFGMDPIDAIVFIRDRRKGAINKRQLQFLKEYRKKKKKKNCLRKCHFM

Soluble on expression in E. coli, soluble:
GSLRVKFSRSADAPAYQQGQNQLYNELNLGRREEYDVLDKRRGRD
MSLAYETFAFVYDEVMDESLYQKWLDFSNRHLPQGTQQILEMACGTGALAVDFAKSGYDVTALDLSEEMLMIASERAFEEEVPVQFVQGNMLDLSEVGQYQAITCFSDSLCYMANRQEVQQVFDEVYQALEEEGTFIFDVHSTYKIDSVFPEYSYHYQTEEFAFLWDSYAGEKEHSIEHFLTFFVKEQETDEHFVRYDELHQERTYSLDNYLRMLESAGFMNVKVYADFTDEAPTETSERWFFVCQRDEGHHHHHH
MDIFMTCSICGFTHNCICAHQPNLSSNIEFALLYHENERHKLTNTGKLLLNSLSNTTEYTWQRKEPPQALISKINQADTETWLLFPSKEPVLSSDFHHRHDPSKKQLFVLLDATWQEAKKMVNKSPWLKALPCLEIQTDEASRYHLRRNQSEGNLCTCEAGIEVLEMVKEPENAQALSCYYDQFLTVFQAERSGHKFTSLEHHHHHH
MMVRVMRYKKVPVKKIVNKIIDECDVILLVLDARDPEMTRNRELEKKIKAKGKKLIYVLNKADLVPKDILEKWKEVFGENTVFVSAKRRLGTKILREMIKQSLKEMGKKEGKVGIVGYPNVGKSSIINALTGKRKALTGSVAGLTKGEQWVRLTKNIKLMDTPGVLEMRDEDDLVISGALRLEKVENPIPPALKILSRINNFDNSIIKEYFGVDYEEVDEELLKKIGNKRSYLTKGGEVDLVRTAKTIIKEYQDGKLNYYKVDLKKYGQDRERDISFITKYLKDFPFIEDAKMIVTHLKDFDGLYKKIKKPVLGSEEIDGNIVVVSFGEKTKDACRKKVENLCRERNIEVLSKFGDKIGANNIYVAVGKRVKE

Source: the DeepSol protein solubility set
